Measurements reported in PMC10516925, “Determining subunit-subunit interaction from statistics of cryo-EM images: observation of nearest-neighbor coupling in a circadian clock protein complex” (Nature Communications, 2023).

B1: KaiC-EE (S431E, T432E) (natural protein)
chain: EHQAIAKMRTMIEGFDDISHGGLPIGRSTLVSGTSGTGKTLFSIQFLYNGIIEFDEPGVFVTFEETPQDIIKNARSFGWDLAKLVDEGKLFILDASPDPEGQEVVGGFDLSALIERINYAIQKYRARRVSIDSVTSVFQQYDASSVVRRELFRLVARLKQIGATTVMTTERIEEYGPIARYGVEEFVSDNVVILRNVLEGERRRRTLEILKLRGTSHMKGEYPFTITDHGINIFPLGAMRLTQRSSNVRVSSGVVRLDEMCGGGFFKDSIILATGATGTGKTLLVSRFVENACANKERAILFAYEESRAQLLRNAYSWGMDFEEMERQNLLKIVCAYPESAGLEDHLQIIKSEINDFKPARIAIDSLSALARGVSNNAFRQFVIGVTGYAKQEEITGLFTNTSDQFMGAHSITDSHIEEITDTIILLQYVEIRGEMSRAINVFKMRGSWHDKAIREFMISDKGPDIKDSFRNFERIISGSPTRI
notes: source: hexamer fractions selected; not shown: His6, N-terminal, cleaved

What was measured:
KaiC-AA (S431A, T432A) = KaiC-AA (S431A, T432A) (UniProt Q79PF4); assay: cryo-EM structure; single-particle cryo-EM of pure KaiC-AA or KaiC-EE, 0.35 ug/ul in 20 mM Tris-HCl (pH 8.0), 150 mM NaCl, 5 mM MgCl2, 0.5 mM EDTA, 1 mM ATP; incubated at 30 °C for 6 h
[1] = target: the molecule itself; assay: as above

Row | Molecule | stoichiometry N (KaiC-AA (S431A, T432A)) | stoichiometry N [1]
1 | KaiC-AA (S431A, T432A) (from UniProt Q79PF4 14-484) (natural protein) | 6 | 
2 | B1 |  | 6
